Measurements reported in PMC2813365.

B1: cognate 8bp (dsDNA)
DNA 1: TGCATGCA
DNA 2: TGCATGCA
B2: non-cognate 17bp (dsDNA)
DNA 1: TGTGCATAGTGGTGCGA
DNA 2: TCGCACCACTATGCACA

Tests used:
[1] = target: T1, PF14_0633 AP2 domain (Plasmodium falciparum, UniProt Q8IKH2 63-123); test: X-ray crystallography
[2] = target: T1, PF14_0633 AP2 domain; test: size exclusion chromatography

Binder	binding result [1]	binding result [2]
B1	binds	–
B2	–	binds
